Where no end group is shown, it is not given here.
Columns and labels:
human TROP-2 (hTROP-2) [1] = target: T1, human TROP-2 (hTROP-2) (human); test: FACS on PK-59 cells
T1 chain: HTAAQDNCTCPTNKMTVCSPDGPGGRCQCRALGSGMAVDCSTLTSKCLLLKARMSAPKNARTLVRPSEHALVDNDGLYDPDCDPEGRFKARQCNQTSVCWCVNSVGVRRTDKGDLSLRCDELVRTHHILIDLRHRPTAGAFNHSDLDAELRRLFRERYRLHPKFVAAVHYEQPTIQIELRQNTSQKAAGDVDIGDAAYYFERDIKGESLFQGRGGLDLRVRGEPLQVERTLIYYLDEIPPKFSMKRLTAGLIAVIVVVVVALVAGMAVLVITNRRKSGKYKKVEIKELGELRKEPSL

human TROP-2 (hTROP-2) [2] = target: T1, human TROP-2 (hTROP-2); test: FACS on BxPC-3 cells
Table 8 peptide No. 1 = target: T2, Table 8 peptide No. 1 (human, not fully specified); test: PEPSCAN CLIPS peptide ELISA
T2 peptide: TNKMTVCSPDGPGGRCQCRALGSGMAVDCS

Table 8 peptide No. 2 = target: T3, Table 8 peptide No. 2 (human, not fully specified); test: PEPSCAN CLIPS peptide ELISA
T3 peptide: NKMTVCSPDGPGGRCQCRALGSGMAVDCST

Table 8 peptide No. 3 = target: T4, Table 8 peptide No. 3 (human, not fully specified); test: PEPSCAN CLIPS peptide ELISA
T4 peptide: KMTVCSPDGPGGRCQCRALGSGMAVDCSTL

Table 8 peptide No. 4 = target: T5, Table 8 peptide No. 4 (human, not fully specified); test: PEPSCAN CLIPS peptide ELISA
T5 peptide: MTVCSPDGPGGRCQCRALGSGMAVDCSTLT

Table 8 peptide No. 5 = target: T6, Table 8 peptide No. 5 (human, not fully specified); test: PEPSCAN CLIPS peptide ELISA
T6 peptide: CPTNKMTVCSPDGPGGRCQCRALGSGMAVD

Table 8 peptide No. 6 = target: T7, Table 8 peptide No. 6 (human, not fully specified); test: PEPSCAN CLIPS peptide ELISA
T7 peptide: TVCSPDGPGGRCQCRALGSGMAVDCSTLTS

Table 8 peptide No. 7 = target: T8, Table 8 peptide No. 7 (human, not fully specified); test: PEPSCAN CLIPS peptide ELISA
T8 peptide: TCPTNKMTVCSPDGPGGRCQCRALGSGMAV

Table 8 peptide No. 8 = target: T9, Table 8 peptide No. 8 (human, not fully specified); test: PEPSCAN CLIPS peptide ELISA
T9 peptide: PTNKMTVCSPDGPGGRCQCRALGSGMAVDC

Table 8 peptide No. 9 = target: T10, Table 8 peptide No. 9 (human, not fully specified); test: PEPSCAN CLIPS peptide ELISA
T10 peptide: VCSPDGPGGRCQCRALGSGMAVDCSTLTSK

Table 8 peptide No. 10 = target: T11, Table 8 peptide No. 10 (human, not fully specified); test: PEPSCAN CLIPS peptide ELISA
T11 peptide: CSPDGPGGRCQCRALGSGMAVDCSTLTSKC

Table 8 peptide No. 13 = target: T12, Table 8 peptide No. 13 (human, not fully specified); test: PEPSCAN CLIPS peptide ELISA
T12 peptide: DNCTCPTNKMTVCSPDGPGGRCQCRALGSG

Table 8 peptide No. 14 = target: T13, Table 8 peptide No. 14 (human, not fully specified); test: PEPSCAN CLIPS peptide ELISA
T13 peptide: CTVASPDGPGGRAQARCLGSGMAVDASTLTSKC

Table 8 peptide No. 15 = target: T14, Table 8 peptide No. 15 (human, not fully specified); test: PEPSCAN CLIPS peptide ELISA
T14 peptide: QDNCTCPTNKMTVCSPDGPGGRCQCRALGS

Table 8 peptide No. 16 = target: T15, Table 8 peptide No. 16 (human, not fully specified); test: PEPSCAN CLIPS peptide ELISA
T15 peptide: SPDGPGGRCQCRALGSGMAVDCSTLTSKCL

Table 8 peptide No. 17 = target: T16, Table 8 peptide No. 17 (human, not fully specified); test: PEPSCAN CLIPS peptide ELISA
T16 peptide: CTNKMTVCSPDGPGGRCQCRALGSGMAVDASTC

Table 8 peptide No. 18 = target: T17, Table 8 peptide No. 18 (human, not fully specified; cysteine pairing not given here); test: PEPSCAN CLIPS peptide ELISA
T17 peptide: TVCSPDGPGGRCQCR

Table 8 peptide No. 19 = target: T18, Table 8 peptide No. 19 (human, not fully specified); test: PEPSCAN CLIPS peptide ELISA
T18 peptide: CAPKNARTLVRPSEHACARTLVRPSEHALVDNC

Table 8 peptide No. 20 = target: T19, Table 8 peptide No. 20 (human, not fully specified); test: PEPSCAN CLIPS peptide ELISA
T19 peptide: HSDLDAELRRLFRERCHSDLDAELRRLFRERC

[3] = target: T20, recombinant protein of the extracellular region of hTROP-2 (human); test: ELISA of free antibody after equilibration with antigen in solution
T20 sequence: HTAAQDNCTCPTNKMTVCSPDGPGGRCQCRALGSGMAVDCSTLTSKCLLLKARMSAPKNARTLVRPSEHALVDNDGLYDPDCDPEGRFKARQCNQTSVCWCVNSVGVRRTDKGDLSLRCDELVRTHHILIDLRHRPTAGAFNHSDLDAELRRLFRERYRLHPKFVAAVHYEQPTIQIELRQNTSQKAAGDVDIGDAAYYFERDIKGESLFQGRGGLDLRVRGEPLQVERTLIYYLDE

mean fluorescence intensity, times that with PE-labeled anti-mouse IgG only (human TROP-2 (hTROP-2) [1]): 89 times
mean fluorescence intensity, times that with PE-labeled anti-mouse IgG only (human TROP-2 (hTROP-2) [2]): 90 times
binding of K5-107 (Table 8 peptide No. 1): 2760
binding of K5-107 (Table 8 peptide No. 2): 2760
binding of K5-107 (Table 8 peptide No. 3): 2750
binding of K5-107 (Table 8 peptide No. 4): 2730
binding of K5-107 (Table 8 peptide No. 5): 2720
binding of K5-107 (Table 8 peptide No. 6): 2720
binding of K5-107 (Table 8 peptide No. 7): 2720
binding of K5-107 (Table 8 peptide No. 8): 2690
binding of K5-107 (Table 8 peptide No. 9): 2660
binding of K5-107 (Table 8 peptide No. 10): 2660
binding of K5-107 (Table 8 peptide No. 13): 1520
binding of K5-107 (Table 8 peptide No. 14): 1120
binding of K5-107 (Table 8 peptide No. 15): 874
binding of K5-107 (Table 8 peptide No. 16): 561
binding of K5-107 (Table 8 peptide No. 17): 380
binding of K5-107 (Table 8 peptide No. 18): 312
binding of K5-107 (Table 8 peptide No. 19): 284
binding of K5-107 (Table 8 peptide No. 20): 272
Kd [3]: 4.7 pM
B1: anti-hTROP-2 monoclonal antibody K5-107 (antibody, V domains shown)
VH: QVQLQQPGSELVRPGASVKLSCKASGYTFTSYWMHWVKQRHGQGLEWIGNIYPGGGYTNYDEKFKSKGTLTVDTSSSTAYMHLSSLTSEDSAVYYCTRSSVFDYWGQGTTLTVSS
VL: DILLTQSPAILSVSPGERVSFSCRASQNIGTSIHWFQQRTNGSPRLLIKYASESISGIPSRFSGSGSGTDFTLSINSVESEDIADYYCQQSNSWPFTFGSGTKLEIK
